Article PMC7643134

Biological target: Hydroxynitrile lyase from Parafontaria laminata millipedes, purified from the millipedes (PlamHNL-N) (Parafontaria laminata)
Test: SEC

## Hydroxynitrile lyase from Parafontaria laminata millipedes, purified from the millipedes (PlamHNL-N) (enzyme)
  stoichiometry N: 2
